Results on one molecule are retold here after patent publication US20200277369A1 (Novartis, published 2020).

Usually Kd stands for the concentration at which binding is half-saturated.

This test addresses T1, human homodimer IL-17A (human, UniProt Q16552 24-155).
T1 construct: Homodimer as printed; also called interleukin-17A
In words: not stated (affinity given in running text of Example 1, no method).

T1 sequence (Q16552 24-155 limits assumed): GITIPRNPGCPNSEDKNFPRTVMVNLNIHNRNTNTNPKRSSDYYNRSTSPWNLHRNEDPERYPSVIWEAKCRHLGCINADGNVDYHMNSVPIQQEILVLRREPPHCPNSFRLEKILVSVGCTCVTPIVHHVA

B1: CJM112 (antibody, V domains shown)
VH: EVQLVESGGDLVQPGGSLRLSCAASGFTFSSYWMSWVRQAPGKGLEWVANIKQDGSEKYYVDSVKGRFTISRDNAKNSLYLQMNSLRAEDTAVYYCARDRGSLYYWGQGTLVTVSS
VL: AIQLTQSPSSLSASVGDRVTITCRPSQGINWELAWYQQKPGKAPKLLIYDASSLEQGVPSRFSGSGSGTDFTLTISSLQPEDFATYYCQQFNSYPLTFGGGTKVEIK
As for B1, the Kd came to 6 pM.
